According to article doi:10.1101/2022.05.10.491349:

Legend:
Experiment in all cases: SEC
[1] = target: SARS-CoV-2 Nsp15 H235Y (SARS-CoV-2)
[2] = target: SARS-CoV-2 Nsp15 R207S (SARS-CoV-2)
[3] = target: SARS-CoV-2 Nsp15 K13N (SARS-CoV-2)
[4] = target: SARS-CoV-2 Nsp15 A93S (SARS-CoV-2)
[5] = target: SARS-CoV-2 Nsp15 T115A (SARS-CoV-2)
[6] = target: SARS-CoV-2 Nsp15 P206S (SARS-CoV-2)
[7] = target: SARS-CoV-2 Nsp15 G18E (SARS-CoV-2)
[8] = target: SARS-CoV-2 Nsp15 V128F (SARS-CoV-2)
[9] = target: SARS-CoV-2 Nsp15 L163F (SARS-CoV-2)
[10] = target: SARS-CoV-2 Nsp15 K260R (SARS-CoV-2)
[11] = target: SARS-CoV-2 Nsp15 T34I (SARS-CoV-2)
[12] = target: SARS-CoV-2 Nsp15 K13R (SARS-CoV-2)
[13] = target: SARS-CoV-2 Nsp15 W333C (SARS-CoV-2)
[14] = target: SARS-CoV-2 Nsp15 D220Y (SARS-CoV-2)
[15] = target: SARS-CoV-2 Nsp15 D133Y (SARS-CoV-2)
[16] = target: SARS-CoV-2 Nsp15 K290N (SARS-CoV-2)
[17] = target: SARS-CoV-2 Nsp15 G18R (SARS-CoV-2)

SARS-CoV-2 Nsp15 H235Y (enzyme) gave a Hex/Mono Ratio [1] of 1.61.

Substance SARS-CoV-2 Nsp15 R207S (enzyme) has a Hex/Mono Ratio [2] of 0.14.

SARS-CoV-2 Nsp15 K13N (enzyme) was tested, and the Hex/Mono Ratio [3] was 0.63.

For SARS-CoV-2 Nsp15 A93S (enzyme), the Hex/Mono Ratio [4] was 0.49.

In the case of SARS-CoV-2 Nsp15 T115A (enzyme), the Hex/Mono Ratio [5] was 0.55.

With SARS-CoV-2 Nsp15 P206S (enzyme) the Hex/Mono Ratio [6] was 2.49.

With SARS-CoV-2 Nsp15 G18E (enzyme) the Hex/Mono Ratio [7] was 0.56.

SARS-CoV-2 Nsp15 V128F (enzyme) was tested, and the Hex/Mono Ratio [8] was 0.5.

In the case of SARS-CoV-2 Nsp15 L163F (enzyme), the Hex/Mono Ratio [9] was 0.23.

In the case of SARS-CoV-2 Nsp15 K260R (enzyme), the Hex/Mono Ratio [10] was 1.8.

In the case of SARS-CoV-2 Nsp15 T34I (enzyme), the Hex/Mono Ratio [11] was 1.01.

Substance SARS-CoV-2 Nsp15 K13R (enzyme) has a Hex/Mono Ratio [12] of 1.18.

SARS-CoV-2 Nsp15 W333C (enzyme) gave a Hex/Mono Ratio [13] of 0.77.

For SARS-CoV-2 Nsp15 D220Y (enzyme), the Hex/Mono Ratio [14] was 0.63.

For SARS-CoV-2 Nsp15 D133Y (enzyme), the Hex/Mono Ratio [15] was 0.48.

SARS-CoV-2 Nsp15 K290N (enzyme) was tested, and the Hex/Mono Ratio [16] was 2.12.

For SARS-CoV-2 Nsp15 G18R (enzyme), the Hex/Mono Ratio [17] was 0.88.
